# Experiment: soluble on expression in E. coli; label from the status in PepcDB or PDB records
row,Sequence,soluble on expression in E. coli
1,MKRILIVTGQSGSGKSSALQVLEDLGYYCIDNLPLALLPEIVAKLDHENNLEQLALGVDVRSTRADMQEFDLVFEQLQKHGTVDVIYLTTQDQELIARFSASRRPHPLASRFKSLNECIQEEKQLLLPIQFRSTVHIDTTDKSVHDLKHTLLSKLGQSDKLILILQSFGYKHGIPLDADYVFDVRHLPNPHWDLELRRFSGLDEPVRRFLESSDQTNEMFDDIFHFLDKWLPVFAEGHRHYMTVSIGCTGGQHRSVYIVDRLKKALEAKWSIQVLHREMKHWS,not soluble
2,MSYKIVIDSCGELLDEWKKDPRFESVALTLSVGGENIIDDENFDQASFLKKVADCPECPKSACPSPERYMRAFDCDADHVYAVTLSAELSGSYNSAVLGKSLLQEENPGKQIYVFNSKSASVGQSLIAMKIQECEEAGYSFEKVIETVEAYIADQHTFFVLDNLETLRKNGRLSKVKALVASALKIKPVMGSTDEGAICQLDQARGMNKALVKMAQNIVDKTKDSENKILAISHCNCRERAVLLKNALEERMPVKHIVILDTAGVSSMYANDGGVIVAV,not soluble
3,MGSDKIHHHHHHMRTHGWNSTCVNRPSGSANSRRLVAHGNGWQTIDMDFAARYVALGDSFTEGVGDDDPARPNGVRGWADRVAEQLGAADPAFGYANLAIRGRKLRQIMAEQVDAAIELKPTLVTIYAGANDILRPKVDIDDLLAEYDAGIRKLSATGATVVMFTGFDARGSKVFGTMRGRTAIYNELVRGIAGDHGALLVDYWRFSEYYDWGMWAKDRMHMSAAGHANMAKRVLTVLEHDHSIDVPPMTPVPELSRADAIRANARWVREFAGPWVVRRVTGKSSGDGLQPRYSQLTRL,not soluble
4,MKLATKKNGTRDGLLMVVSKDLTRCVPATEVFHPRNLAPTMQVALDNWEAVAPQLEEIYTALNNGTVAGFEEFEAHYCESPLPRAYQWADGSAYVNHVELVRKARGAEMPESFWTDPLMYQGGSDAFIGPCDNIEFASDEWGIDFEGEVAVVTGDVPMGASIAEAQESIRLIMLVNDVSLRGLIPAELAKGFGFFQSKPSSAFSPVAVTPDELGDEWYENKVHLPLVSTYNHKPFGRPNAGVDMTFDFADLIVHATKTRPLSAGAIIGSGTVSNKQGTDHGTSIEEGGVGYSCIAEVRMIETIRDGKPTTNFMSFGDSIKLEMFDVEGNTIFGAIDQQVSQYLKH,not soluble
5,MAMSRQCTHYGRWPQHGFTSLKKLTPQSVTSRIQPGTDVIVCAEMDEHWGYFCAKKRQRWLVDTYDKIRRTDVDHVFGERTLATLERLLSLLSAFEVAVWMTDGWPLYESRLKGKLHVISKRYTQRIERHNLNLRQHLARLVRKSLSFSKSVELHSGIILEHHHHHH,not soluble
6,MNYSHPISLKTLVQEDDIGVNAPIIHQSVIARLTAGLYPLYQSKKIPFEPLPETMLTEGYSSPVPDVLLYDHQTEEAKVIIEVCQNSGLKHDTSKIVKLIEDNAYGILEGFVFNYKTQQWLRYRLGDGGVATNSSFSEVLQVDLNTFV,soluble
7,MRTRSQVWAQKAYEKVREAAKGEGRGEYRDMALKLPVLVRQAGLSQALAFVDSRGKEAHKALGNDLAQVLGYRDLRELAEAAREAELLQYLRLTREVLAAAEWFKRFAQALIEE,soluble
8,MSLHSTPAPVASPLPSALDEAARLAVLHGLCLLDSPPDPVFDTIAAMAARMLGTEIALVSLVDEHRQWFKARVGLEAPETPRKHAFCAHALRSDDVLVIPDALLDPRFCNNPLVLGAPHIRFYAGAPLKLRDGHTIGTLCVIGTSPRAGLDAEQRIQLEGLRDLAVLRVENLRSSTYRNGPTGLPNRARFSEDLDAVLLQRTADSAATAIAVDLCGSDYFRDMVKALGWDYADGYVALAYKRLISKLPAGTALYRLDTTTFAFMVTTADPLRLSALCSKISKGFVAPLEHQGIPHTAVASIGAVLLETSYGAADTLRSLTTSVDVAREHCLTWSLYEREGHHHHHH,soluble
9,MAHHHHHHMNFLGGSLRSGGGHRREKGFSAKNKVQQYHGDGSESIVLAGRPFRVLQKISDVPPPYMVTRQRSTKYGEGGSSYVYLVENTSHLPEFPRHLALKRSFFGVDQVMEAHKEVEIVSRIEDKNIVCVYHSEISRSEGRLGVSIAMEYCSNNLYHRIRSSAGTGIVTRLTEAEICHVMFAVTSAVGYLHAQQPPITHRDIRPENILINNKHAGPTAYKLTNFGNATTEAYQCETREEANMAIADIQMHTNPAFRAPEMADPWSKKRICEKTDMWSMGVLLYYMMYMSLPFDPSTTIVKDWALTFPSEATASYTPSLRVITEHLLDPDPCSRWDVFALINYMRFDEDCSRHLGTFCFTKTEWPEGWEEHDVKVLGRTPPPKAPPVSYNEPGHEQLDSRGLRGQERVHGHTNGHQPPDDRGNGRDSAVVDGAAVQEAMIVLGGDPADDDPAVAKYRHQIIMVQQEAWRRAKAAAGLRDSPPTEPQESSAAPAPTRANNEAQKDVFDDLFASASPTVFPTSQASPAMGPSAPPATHQPPEKDVFSASDLFSTSAPQLDPSYPVMNTYGQAPQQMAMGGWGSGAPVMGSGGYPMQQPQNQQQAPWGYGVSNANNYAPPLPPQQQQQQQLQPFTNFLPPLSGQQPGQQQSQQQETSQPRTARATAKRDPFADLFN,not soluble
10,MERKMATHFARGILTEGHLISVRLPSQCHQEARNIPPHRQSRFLASRGLLAELMFMLYGIGELPEIVTLPKGKPVFSDKNLPSFSISYAGNMVGVALTTEGECGLDMELQRATRGFHSPHAPDNHTFSSNESLWISKQNDPNEARAQLITLRRSVLKLTGDVLNDDPRDLQLLPIAGRLKCAHVNHVEALCDAEDVLVWSVAVTPTIEKLSVWELDGKHGWKSLPDIHSRANNPTSRMMRFAQLSTVKAFSPN,not soluble
11,MSLKVLAAMSGGVDSSVAAARMVDAGHEVVGVHMALSTAPGTLRTGSRGCCSKEDAADARRVADVLGIPFYVWDFAEKFKEDVINDFVSSYARGETPNPCVRCNQQIKFAALSARAVALGFDTVATGHYARLSGGRLRRAVDRDKDQSYVLAVLTAQQLRHAAFPIGDTPKRQIRAEAARRGLAVANKPDSHDICFIPSGNTKAFLGERIGVRRGVVVDADGVVLASHDGVHGFTIGQRRGLGIAGPGPNGRPRYVTAIDADTATVHVGDVTDLDVQTLTGRAPVFTAGAAPSGPVDCVVQVRAHGETVSAVAELIGDALFVQLHAPLRGVARGQTLVLYRPDPAGDEVLGSATIAGASGLSTGGNEGHHHHHH,soluble
12,MTARVAGQAVGGQILVGEPVHDAVSDCADIRFGSYRLFSLDAAPGPDLD,not soluble
13,DIQMNQSPSSLSASLGDTITITCHASQNINVWLNWFQQKPGSIPKLLIYMASNLHTGVPSRFSGSGSGTGFTLTISSLQPEDIATYYCQQGQSFPLTFGGGTKLEIKRADAAPTVSIFPPSSEQLTSGGASVVCFLNNFYPKDINVKWKIDGSERQNGVLNSWTDQDSKDSTYSMSSTLTLTKDEYERHNSYTCEATHKTSTSPIVKSFNRN,soluble
14,MTLPIRNVAIIAHVDHGKTTLVDALLKQSGIFREGEDVPDCVMDSNALERERGITILSKNTAVRYKETLINIVDTPGHADFGGEVERVLGMVDGCLLIVDANEGPMPQTRFVLKKALEKGLRPIVVVNKIDRGQADPHVAVDKVLDLFLELGADEDQCDFPYLFASGMGGYAKENLEAESVDMQPLFDAILRHVPAPVGDPNKPLQLQVTTLDYSEYLGRIVIGRIHNGTIRAGQQAALVVEDGSIVKGKITKLMGFEGLKRVEMTEATAGYIVAVAGFADAYIGETITDPNEPQALPLIKVDEPTLQMTFWVNDSPFAGQEGKLVTSRQVRDRLFRELETNVALRVEETDSPDKFLVSGRGELHLGILIETMRREGFEFQVSQPQVIYRTVNGQPCEPYELLVLDVPADAVGSCIERLGQRKGEMQDMQPVAGDRTQLEFVIPARGLIGFRGEFMRMTRGEGIMNHSFLDYRQLSGDIEARNKGVLISFEEGISTFYAMKNAEDRGSFFITPGTKVYRGMIVGEHNRPQDLELNVCKTKQLTNHRASGGDELVQLQAPVDMSLERALEYIGPDELVEVTPQSIRLRKMAKKLAKR,not soluble
15,QRLKVEDALSYLDQVKLQFGSQPQVYNDFLDIMKEFKSQSIDTPGVISRVSQLFKGHPDLIMGFNTFLPPG,soluble
16,MKESYYSIGEVSKLANVSIKALRYYDKIDLFKPAYVDPDTSYRYYTDSQLIHLDLIKSLKYIGTPLEEMKKAQDLEMEELFAFYTEQERQIREKLDFLSALEQTISLVKKRMKRQMEYPALGEVFVLDEEEIRIIQTEAEGIGPENVLNASYSKLKKFIESADGFTNNSYGATFSFQPYTSIDEMTYRHIFTPVLTNKQISSITPDMEITTIPKGRYACIAYNFSPEHYFLNLQKLIKYIADRQLTVVSDVYALIIPIHYSPKKQEEYRVEMKIRILDHHHHHH,soluble
17,GSAGDVTNDLSHVRKIIVACDAGMGSSAMGAGVLRKKIQDAGLSQISVTNSAINNLPPDVDLVITHRDLTERAMRQVPQAQHISLTNFLDSGLYTSLTERLVAAQRHTENEVKVKDSLKDSFDDS,soluble
18,MGSDKIHHHHHHMRRKIPSSASLQAFDAAARHGNFARAAEELSLTEGAISRQIARLEALLNCKLFDRMGSRVKLNPVGAHYAHHVRETLDRLERDTQYIMGMPEGSKSLDIAVLPTFSNRWLIPRLSGFNSLFPDITLNIAARTDPFILPGSGFDAVIHFEHSAWTGMRMQFLFQENLLPVCNPALLTNNDVNRQLNELPRIHRRQNPEAWHHYARESGIRLDNPAQGVRYDLHEMTIAAVIAGHGVALVPRMYVENELSCGMLVSPWPASDCLSKKFCLVKPMETGINEDALESFERWLLAEMNTLTSLNAER,not soluble

# — the DeepSol protein solubility set
